What was measured:
MMP-10 = MMP-10 (Homo sapiens, UniProt P09238); test: Cleavage by recombinant protease MMP-10; type: biochemical; settings: initial rate, recombinant MMP-10
Experimental: (§1) In this example, the peptides library was subjected to cleavage screening by biological matrices, i.e., tumor conditioned media (TCM). The cleavage of the peptides library by plasma was performed for comparison. Each peptide in the library includes a fluorescent mark at one end of its sequence and a quencher on the other end of the sequence. Upon cleavage of the peptide, the quencher is separated from the fluorescent mark, thereby releasing the fluorescent mark. The peptide substrates with the highest ratio of (initial rate of cleavage by tumor conditioned media (TCM) - initial rate of cleavage by plasma) in pmol/min, from cancer patients were identified.
(§2) The peptides with high ratio of initial rate of cleavage by tumor conditioned media (TCM) to initial rate of cleavage by plasma were further screened using recombinant proteases. The peptide substrates that have high initial rates (uM/h) of cleavage by recombinant proteases were identified (Table 4).

CatB = CatB (Homo sapiens, UniProt P07858); test: Cleavage by recombinant protease Cathepsin B; type: biochemical; settings: initial rate
Experimental: as §1, §2

MMP-9 = MMP-9 (Homo sapiens, UniProt P14780); test: Cleavage by recombinant protease MMP-9; type: biochemical; settings: initial rate, recombinant MMP-9
Chain of MMP-9 (P14780 94-707): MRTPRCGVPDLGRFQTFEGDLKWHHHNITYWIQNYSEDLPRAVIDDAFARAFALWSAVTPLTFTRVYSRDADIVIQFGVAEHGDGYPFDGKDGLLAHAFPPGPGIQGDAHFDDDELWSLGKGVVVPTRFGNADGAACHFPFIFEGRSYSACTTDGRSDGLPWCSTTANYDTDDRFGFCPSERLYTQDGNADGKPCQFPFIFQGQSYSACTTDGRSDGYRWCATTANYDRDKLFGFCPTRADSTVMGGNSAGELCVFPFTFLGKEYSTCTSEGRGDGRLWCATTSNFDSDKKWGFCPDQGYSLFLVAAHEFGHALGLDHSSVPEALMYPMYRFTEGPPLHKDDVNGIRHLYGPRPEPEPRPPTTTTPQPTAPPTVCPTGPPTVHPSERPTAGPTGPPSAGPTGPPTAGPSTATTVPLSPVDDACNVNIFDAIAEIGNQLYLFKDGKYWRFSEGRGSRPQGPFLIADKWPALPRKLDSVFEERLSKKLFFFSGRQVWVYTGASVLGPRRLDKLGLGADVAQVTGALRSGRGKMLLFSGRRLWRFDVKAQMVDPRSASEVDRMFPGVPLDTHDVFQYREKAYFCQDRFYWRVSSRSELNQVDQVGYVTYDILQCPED
Experimental: as §1, §2

MMP-8 = MMP-8 (Homo sapiens, UniProt P22894); test: Cleavage by recombinant protease MMP-8; type: biochemical; settings: initial rate, recombinant MMP-8
Chain of MMP-8 (P22894 101-467): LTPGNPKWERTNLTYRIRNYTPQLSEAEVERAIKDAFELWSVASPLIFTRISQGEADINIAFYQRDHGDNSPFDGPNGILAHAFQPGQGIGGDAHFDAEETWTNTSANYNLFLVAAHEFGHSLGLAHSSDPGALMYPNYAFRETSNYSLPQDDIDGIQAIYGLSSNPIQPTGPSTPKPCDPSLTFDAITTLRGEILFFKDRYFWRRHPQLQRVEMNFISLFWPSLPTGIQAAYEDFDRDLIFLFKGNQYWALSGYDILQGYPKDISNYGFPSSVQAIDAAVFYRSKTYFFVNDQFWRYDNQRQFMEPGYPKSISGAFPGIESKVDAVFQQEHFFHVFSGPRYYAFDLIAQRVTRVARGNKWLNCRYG
Experimental: as §1, §2

MMP-2 = biological target: T1, MMP-2 (Homo sapiens, UniProt P08253); test: Cleavage by recombinant protease MMP-2; type: biochemical; settings: initial rate, recombinant MMP-2
T1 sequence (P08253 110-660): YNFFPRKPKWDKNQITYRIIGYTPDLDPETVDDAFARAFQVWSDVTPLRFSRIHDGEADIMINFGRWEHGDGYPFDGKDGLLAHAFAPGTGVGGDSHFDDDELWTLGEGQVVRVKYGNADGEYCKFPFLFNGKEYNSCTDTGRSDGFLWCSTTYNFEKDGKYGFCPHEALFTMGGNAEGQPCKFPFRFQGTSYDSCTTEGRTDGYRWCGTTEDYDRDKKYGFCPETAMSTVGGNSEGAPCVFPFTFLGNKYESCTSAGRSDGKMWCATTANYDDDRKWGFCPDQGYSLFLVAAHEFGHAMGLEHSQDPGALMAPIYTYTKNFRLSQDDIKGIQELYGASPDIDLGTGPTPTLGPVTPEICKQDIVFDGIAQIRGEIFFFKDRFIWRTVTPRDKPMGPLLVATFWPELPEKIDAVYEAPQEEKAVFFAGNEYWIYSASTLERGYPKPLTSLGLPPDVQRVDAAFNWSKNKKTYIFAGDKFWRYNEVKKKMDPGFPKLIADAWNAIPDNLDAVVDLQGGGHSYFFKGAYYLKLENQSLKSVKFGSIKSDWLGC
Experimental: as §1, §2

MMP-14 = MMP-14 (Homo sapiens, UniProt P50281); test: Cleavage by recombinant protease MMP-14; type: biochemical; settings: initial rate, recombinant MMP-14
Experimental: as §1, §2

[1] = tested on: RCC tumor conditioned media (TCM) and plasma; test: Fluorescence-quencher peptide cleavage screening, RCC tumor conditioned media versus plasma; type: biochemical, human; settings: RCC patients; fluorophore/quencher-labelled peptide
Experimental: as §1

[2] = tested on: H&N tumor conditioned media (TCM) and plasma; test: Fluorescence-quencher peptide cleavage screening, H&N tumor conditioned media versus plasma; type: biochemical, human; settings: Head and Neck cancer patients; fluorophore/quencher-labelled peptide
Experimental: as §1

MMP-7 = biological target: T2, MMP-7 (Homo sapiens, UniProt P09237); test: Cleavage by recombinant protease MMP-7; type: biochemical; settings: initial rate, recombinant MMP-7
T2 sequence (P09237 95-267): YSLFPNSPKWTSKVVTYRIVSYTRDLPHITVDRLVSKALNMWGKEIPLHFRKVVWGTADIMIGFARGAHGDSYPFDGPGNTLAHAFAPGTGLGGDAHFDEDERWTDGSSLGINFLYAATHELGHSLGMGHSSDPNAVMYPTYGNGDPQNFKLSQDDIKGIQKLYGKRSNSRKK
Experimental: as §1, §2

MMP-1 = biological target: T3, MMP-1 (Homo sapiens, UniProt P03956); test: Cleavage by recombinant protease MMP-1; type: biochemical; settings: initial rate, recombinant MMP-1
T3 sequence (P03956 100-469): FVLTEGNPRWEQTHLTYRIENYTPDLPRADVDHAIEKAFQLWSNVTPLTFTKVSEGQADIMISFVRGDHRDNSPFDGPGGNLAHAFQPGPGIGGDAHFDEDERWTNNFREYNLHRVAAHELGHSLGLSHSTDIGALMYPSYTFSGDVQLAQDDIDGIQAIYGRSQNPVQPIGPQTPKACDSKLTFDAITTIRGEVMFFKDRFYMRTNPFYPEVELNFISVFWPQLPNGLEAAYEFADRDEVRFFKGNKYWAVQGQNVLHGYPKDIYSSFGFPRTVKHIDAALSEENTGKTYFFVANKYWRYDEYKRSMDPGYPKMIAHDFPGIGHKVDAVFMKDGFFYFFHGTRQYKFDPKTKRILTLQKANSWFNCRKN
Experimental: as §1, §2

[3] = tested on: 'NAT' (Normal Adjacent Tissue) culture supernatant; test: Cleavage of synthetic peptides in NAT culture supernatant (MSP-MS); type: biochemical; settings: for Earliest cleaved time point -NAT: NAT culture supernatant, MSP-MS; for NAT + CFZ: cleavage in NAT culture supernatant, carfilzomib (CFZ) in the incubation media, given as fraction x/5
Experimental: (§3) Sequences comprising cleavage peptides […] (SEQ ID NO: 1) or […] (SEQ ID NO:2) (shown in bold below) were incubated in either ‘NAT’ (Normal Adjacent Tissue) or ‘RCC’ (Renal Cell Carcinoma) culture supernatants, to test the specificity of each peptide’s cleavage. Carfilzomib (CFZ) is also included in the incubation media as an inhibitor of proteosome, to inhibit false positive cleavage.
(§4) To this end, peptide sequencing by mass spectrometry was used to identify cleaved fragments produced for the synthetic peptides shown in the table below, using a published technique called multiplexed substrate profiling by mass spectrometry (MSP-MS) (O’Donoghue A.J. et al. Nat Methods. 2012 Nov;9(11):1095-100.) Cleavages were monitored in these reactions over time, and the peptides found to be cleaved in the earliest time points were deemed to be most sensitive to proteolytic activity in the conditioned media samples.

[4] = tested on: 'RCC' (Renal Cell Carcinoma) culture supernatant; test: Cleavage of synthetic peptides in RCC culture supernatant (MSP-MS); type: biochemical; settings: for Earliest cleaved time point -RCC: RCC culture supernatant, MSP-MS; for RCC + CFZ: cleavage in RCC culture supernatant, carfilzomib (CFZ) in the incubation media, given as fraction x/5
Experimental: as §3, §4

[5] = patients who received a 5-minute intravenous (IV) infusion; product label; cited from earlier work

Chain of MMP-10 (P09238 99-476): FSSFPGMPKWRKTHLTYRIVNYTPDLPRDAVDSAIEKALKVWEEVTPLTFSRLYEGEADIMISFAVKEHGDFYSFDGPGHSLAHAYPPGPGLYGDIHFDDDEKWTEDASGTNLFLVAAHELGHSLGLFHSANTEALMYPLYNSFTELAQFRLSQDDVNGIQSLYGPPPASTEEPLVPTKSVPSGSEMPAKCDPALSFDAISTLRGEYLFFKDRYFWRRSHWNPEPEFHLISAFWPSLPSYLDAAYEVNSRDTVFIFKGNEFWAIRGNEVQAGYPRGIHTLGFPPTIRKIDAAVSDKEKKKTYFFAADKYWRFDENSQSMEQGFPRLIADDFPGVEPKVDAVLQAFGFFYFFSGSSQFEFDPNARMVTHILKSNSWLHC

| Substance | Rates of cleavage by recombinant proteases, MMP-10 (MMP-10) [µM/h] | Rates of cleavage by recombinant proteases, CatB (CatB) [µM/h] | Rates of cleavage by recombinant proteases, MMP-9 (MMP-9) [µM/h] | Rates of cleavage by recombinant proteases, MMP-8 (MMP-8) [µM/h] | Rates of cleavage by recombinant proteases, MMP-2 (MMP-2) [µM/h] | Rates of cleavage by recombinant proteases, MMP-14 (MMP-14) [µM/h] | Initial cleavage rate in tumor conditioned media minus initial cleavage rate in plasma [1] [pmol/min] | Initial cleavage rate difference, tumor conditioned media minus plasma [2] [pmol/min] | Rates of cleavage by recombinant proteases, MMP-7 (MMP-7) [µM/h] | Rates of cleavage by recombinant proteases, MMP-1 (MMP-1) [µM/h] | Earliest cleaved time point -NAT [3] [min] | NAT + CFZ [3] | Earliest cleaved time point -RCC [4] [min] | RCC + CFZ [4] | half-life [5] [min] |
| --- | --- | --- | --- | --- | --- | --- | --- | --- | --- | --- | --- | --- | --- | --- | --- |
| APAGLIVPYN [proteolytically cleavable peptide (CP), protease substrate] | 1.6 | 1.0 | 1.8 | 0.5 | 29.6 | 2.1 | 0.2 | 0.1 | 2.4 | 0.0 | – | – | – | – | – |
| IVGRPRHQGV [proteolytically cleavable peptide (CP), protease substrate] | 0.0 | 1.9 | 0.0 | 0.0 | 0.0 | 0.0 | 0.6 | 0.1 | 0.0 | 0.0 | – | – | – | – | – |
| PANLVAPDP [proteolytically cleavable peptide (CP), protease substrate] | 1.8 | 0.0 | 8.8 | 7.2 | 31.2 | 0.7 | 0.1 | 0.4 | 2.5 | 2.7 | – | – | – | – | – |
| PVSLRSGS [proteolytically cleavable peptide (CP), protease substrate] | 0.0 | 0.0 | 6.5 | 0.1 | 1.9 | 0.0 | 0.2 | 0.0 | 0.2 | 0.0 | – | – | – | – | – |
| RPLALWRS [proteolytically cleavable peptide (CP), protease substrate] | 0.0 | 0.3 | 0.2 | 0.2 | 1.1 | 0.0 | 0.5 | 0.0 | 0.2 | 0.1 | – | – | – | – | – |
| RQGGM*PKDLYHA*SAKQ (RQGGMPKDLYHASAKQ) [Alu-XT-091, * indicates cleavage site] | – | – | – | – | – | – | – | – | – | – | 5 | 1/5 | 15 | 5/5 | – |
| RSKYLATA [proteolytically cleavable peptide (CP), protease substrate] | 0.0 | 1.9 | 0.0 | 0.0 | 0.0 | 0.0 | 0.3 | 0.0 | 0.0 | 0.0 | – | – | – | – | – |
| RVGPVSL*R*SGSGKI (RVGPVSLRSGSGKI) [Alu-XT-019, * indicates cleavage site] | – | – | – | – | – | – | – | – | – | – | 5 | 1/5 | 15 | 5/5 | – |
| TQKPLGLS [proteolytically cleavable peptide (CP), protease substrate] | 0.0 | 0.3 | 0.3 | 0.1 | 11.8 | 0.1 | 0.2 | 0.2 | 1.8 | 0.0 | – | – | – | – | – |
| aldesleukin | – | – | – | – | – | – | – | – | – | – | – | – | – | – | 85 |
